How the values were obtained:
[1] = biological target: human transferrin receptor (TfR) on cells (human, UniProt P02786 1-760); experiment: cell-based or functional assay
[2] = biological target: T1, soluble TfR antigen (human TfR extracellular domain) (human, UniProt P02786 89-760); experiment: ELISA, soluble TfR antigen coated at 2 ug/mL, HRP anti-human IgG Fc, A450
T1 construct: also called soluble human TfR
T1 sequence (P02786 89-760 limits assumed): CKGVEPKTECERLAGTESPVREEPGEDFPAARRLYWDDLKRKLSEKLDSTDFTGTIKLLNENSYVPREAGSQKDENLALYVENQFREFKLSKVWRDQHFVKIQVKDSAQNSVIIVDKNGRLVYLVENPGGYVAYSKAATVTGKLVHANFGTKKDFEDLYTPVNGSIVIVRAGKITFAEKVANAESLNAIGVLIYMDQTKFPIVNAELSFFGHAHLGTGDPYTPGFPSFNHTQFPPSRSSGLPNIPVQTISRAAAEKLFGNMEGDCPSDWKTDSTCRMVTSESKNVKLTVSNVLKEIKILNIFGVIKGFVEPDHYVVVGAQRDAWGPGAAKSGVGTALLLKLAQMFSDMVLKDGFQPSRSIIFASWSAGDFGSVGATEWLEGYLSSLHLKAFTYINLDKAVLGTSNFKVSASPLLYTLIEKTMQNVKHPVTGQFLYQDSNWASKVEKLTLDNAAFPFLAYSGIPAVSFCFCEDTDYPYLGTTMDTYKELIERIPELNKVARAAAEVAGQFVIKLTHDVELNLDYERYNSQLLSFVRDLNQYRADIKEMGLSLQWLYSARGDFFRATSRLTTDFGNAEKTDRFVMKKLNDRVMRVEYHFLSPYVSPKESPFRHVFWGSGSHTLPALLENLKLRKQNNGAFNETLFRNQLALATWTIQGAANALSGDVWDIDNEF

Chain of human transferrin receptor (TfR) on cells (P02786 whole entry, the tested form may be a part): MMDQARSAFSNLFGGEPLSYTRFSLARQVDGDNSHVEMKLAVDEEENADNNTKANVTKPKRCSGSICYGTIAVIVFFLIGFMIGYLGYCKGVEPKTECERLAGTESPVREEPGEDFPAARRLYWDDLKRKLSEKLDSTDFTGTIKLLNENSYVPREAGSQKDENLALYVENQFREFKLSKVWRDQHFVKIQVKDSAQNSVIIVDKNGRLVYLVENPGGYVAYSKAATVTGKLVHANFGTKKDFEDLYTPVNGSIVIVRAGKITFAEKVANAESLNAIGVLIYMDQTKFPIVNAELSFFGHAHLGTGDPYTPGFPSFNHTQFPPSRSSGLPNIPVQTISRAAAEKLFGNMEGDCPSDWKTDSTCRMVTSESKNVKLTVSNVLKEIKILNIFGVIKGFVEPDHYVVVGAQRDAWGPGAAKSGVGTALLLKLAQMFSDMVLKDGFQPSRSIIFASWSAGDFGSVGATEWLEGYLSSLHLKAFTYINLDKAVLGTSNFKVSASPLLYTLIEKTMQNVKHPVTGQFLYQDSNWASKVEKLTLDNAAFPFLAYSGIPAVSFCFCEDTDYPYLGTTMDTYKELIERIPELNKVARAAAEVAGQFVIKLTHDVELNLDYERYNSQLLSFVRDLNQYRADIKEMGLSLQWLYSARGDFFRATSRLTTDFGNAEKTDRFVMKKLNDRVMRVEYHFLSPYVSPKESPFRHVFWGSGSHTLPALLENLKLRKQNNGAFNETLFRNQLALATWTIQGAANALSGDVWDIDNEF

B1: TfR006 antibody (parent antibody, IgG) (antibody, V domains shown)
VH: QVQLVQSGGGVVQPGRSLRLSCAASGFPFKSYGMHWVRQAPGKGLEWVAVISFDGSSKYYADSVKGRFTISRDNSKNTLYLQMNSLRGEDTAVYYCARDSNFWSGYYSPVDVWGQGTTVTVSS
VL: NFMLTQPHSVSESPGKTVTISCTRSSGSIASNSVQWYQQRPGSAPITVIYEDTQRPSGVPDRFSGSIDSSSNSASLTISGLQTEDEADYYCQSYDSAYHWVFGGGTKLAVL
[1]
  Antibody concentration exhibiting 50% growth rate (IC50), K562 cells: 0.034 µg/mL
  Antibody concentration exhibiting 50% growth rate (IC50), MT-2 cells: 0.008 µg/mL

B2: 3TF12 IgG1 antibody (from 3TF12 scFv of WO 2011/073943) (antibody, V domains shown)
VH: QVQLQESGGGLVQPGGSLRLSCAASGFSFNTYTMHWVRQAPGKGLEWVADIAYDGSTKYYADSVKGRFTISRDNAKNSLYLQMNSLRAEDTAVYYCARDAVAGEGYFDLWGRGTLVTVSS
VL: QSALTQDPAVSVALGQTVRITCQGDSLRSYYASWYQQLPGTAPKLLIYRNNQRPSGVPDRFSGSKSGTSASLAISGLRSEDEADYYCAAWDDSLSAWVFGGGTKLTVLG
notes: also called 3TF12 antibody
[2]
  binding result: binds

Reference: patent US20150291697A1 (PERSEUS PROTEOMICS, published 2015)
